Experimental data reported in publication PMC3384007, “Crystal Structure of the VapBC Toxin–Antitoxin Complex from Shigella flexneri Reveals a Hetero-Octameric DNA-Binding Assembly” (Journal of Molecular Biology, 2011).

B1: DNA III (dsDNA)
DNA 1: ATAAACGTATATCCCTTTGACATATCCCGG
DNA 2: CCGGGATATGTCAAAGGGATATACGTTTAT
B2: Shigella flexneri VapC toxin (MvpT) (natural protein)
chain: MLKFMLDTNICIFTIKNKPASVRERFNLNQGKMCISSVTLMELIYGAEKSQMPERNLAVIEGFVSRIDVLDYDAAAATHTGQIRAELARQGRPVGPFDQMIAGHARSRGLIIVTNNTREFERVGGLRTEDWS
notes: Untagged in this construct, purified through His6-VapB; also called PIN domain
B3: Shigella flexneri VapB antitoxin (His6-VapB) (natural protein, UniProt O06663 1-75, looked up)
chain: METTVFLSNRSQAVRLPKAVALPENVKRVEVIAVGRTRIITPAGETWDEWFDGHSVSTDFMDNREQPGMQERESF
notes: VapB antitoxin of the vapBC locus of the Shigella flexneri 2a virulence plasmid pMYSH6000; gene optimized for expression; No cleavage of the tag is described; In the assembly four copies of VapB stand with four of VapC (VapB4C4)

Key:
[1] = target: T1, VapBC complex (VapB:His6-VapC), hetero-octamer VapB4C4 (Shigella flexneri (plasmid pMYSH6000), UniProt O06663;O06662 1-75;1-132); assay: EMSA; single shift, highest affinity site; 2.5 ng/ul VapBC, 0.1 mg/ml salmon sperm DNA; details: protein: recombinant; tags: His6 on VapC; chain copies: 4;4; label: 5'-32P on SF-EMSA2-f; blunt
T1 sequence 1: B3 chain
T1 sequence 2: B2 chain

[2] = target: the molecule itself; assay: cross-linking; purified VapBC complex 1 mg/ml in 100 mM sodium borate pH 9.1 with dimethyl superimidate (DMSI), aliquots after 5-120 min, 15% Coomassie-stained SDS-PAGE
[3] = target: the molecule itself; assay: crystal structure; His6-VapB:VapC complex, 7 mg/ml; crystals in 0.1 M Bis-Tris pH 5.5, 1 M ammonium sulfate, 0.5% (v/v) PEG 3350, 19 °C; 2.7 Å; four copies of each protein in the asymmetric unit (VapB4C4)

| Binder | binding result [1] | stoichiometry N [2] | stoichiometry N [3] |
| --- | --- | --- | --- |
| B1 | binds | – | – |
| B2 | – | 4 | – |
| B3 | – | 4 | 2 |
